For the assay, the target named is Mouse FGFR4/β-klotho complex co-expressed in rat L6 myoblast cells (mouse) (UniProt Q03142). Description: cell-based or functional assay.
Mouse FGFR4/β-klotho complex co-expressed in rat L6 myoblast cells (mouse), sequence (Q03142 17-799, chain 1 of 2): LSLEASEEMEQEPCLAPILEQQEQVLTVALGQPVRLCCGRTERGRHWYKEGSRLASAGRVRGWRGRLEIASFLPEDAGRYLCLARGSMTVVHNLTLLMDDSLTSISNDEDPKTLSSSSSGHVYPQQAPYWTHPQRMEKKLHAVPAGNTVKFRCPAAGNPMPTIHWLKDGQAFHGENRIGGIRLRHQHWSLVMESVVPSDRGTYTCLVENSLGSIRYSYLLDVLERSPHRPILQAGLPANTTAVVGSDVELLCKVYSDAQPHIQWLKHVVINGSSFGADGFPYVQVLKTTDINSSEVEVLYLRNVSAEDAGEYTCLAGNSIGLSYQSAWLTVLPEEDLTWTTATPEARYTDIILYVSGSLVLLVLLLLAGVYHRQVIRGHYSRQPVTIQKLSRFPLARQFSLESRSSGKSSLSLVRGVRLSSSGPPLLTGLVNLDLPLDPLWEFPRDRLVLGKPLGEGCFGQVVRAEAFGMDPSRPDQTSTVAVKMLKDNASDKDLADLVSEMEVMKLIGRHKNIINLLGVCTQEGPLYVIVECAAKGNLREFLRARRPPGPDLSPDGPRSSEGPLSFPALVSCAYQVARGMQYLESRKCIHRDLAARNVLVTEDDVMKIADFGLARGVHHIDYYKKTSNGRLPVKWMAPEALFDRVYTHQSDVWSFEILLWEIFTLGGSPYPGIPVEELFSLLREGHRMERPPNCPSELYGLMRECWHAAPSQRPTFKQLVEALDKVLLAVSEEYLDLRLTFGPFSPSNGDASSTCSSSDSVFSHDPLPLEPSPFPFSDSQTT
Mouse FGFR4/β-klotho complex co-expressed in rat L6 myoblast cells (mouse), sequence (Q99N32 whole entry, chain 2 of 2, further chain): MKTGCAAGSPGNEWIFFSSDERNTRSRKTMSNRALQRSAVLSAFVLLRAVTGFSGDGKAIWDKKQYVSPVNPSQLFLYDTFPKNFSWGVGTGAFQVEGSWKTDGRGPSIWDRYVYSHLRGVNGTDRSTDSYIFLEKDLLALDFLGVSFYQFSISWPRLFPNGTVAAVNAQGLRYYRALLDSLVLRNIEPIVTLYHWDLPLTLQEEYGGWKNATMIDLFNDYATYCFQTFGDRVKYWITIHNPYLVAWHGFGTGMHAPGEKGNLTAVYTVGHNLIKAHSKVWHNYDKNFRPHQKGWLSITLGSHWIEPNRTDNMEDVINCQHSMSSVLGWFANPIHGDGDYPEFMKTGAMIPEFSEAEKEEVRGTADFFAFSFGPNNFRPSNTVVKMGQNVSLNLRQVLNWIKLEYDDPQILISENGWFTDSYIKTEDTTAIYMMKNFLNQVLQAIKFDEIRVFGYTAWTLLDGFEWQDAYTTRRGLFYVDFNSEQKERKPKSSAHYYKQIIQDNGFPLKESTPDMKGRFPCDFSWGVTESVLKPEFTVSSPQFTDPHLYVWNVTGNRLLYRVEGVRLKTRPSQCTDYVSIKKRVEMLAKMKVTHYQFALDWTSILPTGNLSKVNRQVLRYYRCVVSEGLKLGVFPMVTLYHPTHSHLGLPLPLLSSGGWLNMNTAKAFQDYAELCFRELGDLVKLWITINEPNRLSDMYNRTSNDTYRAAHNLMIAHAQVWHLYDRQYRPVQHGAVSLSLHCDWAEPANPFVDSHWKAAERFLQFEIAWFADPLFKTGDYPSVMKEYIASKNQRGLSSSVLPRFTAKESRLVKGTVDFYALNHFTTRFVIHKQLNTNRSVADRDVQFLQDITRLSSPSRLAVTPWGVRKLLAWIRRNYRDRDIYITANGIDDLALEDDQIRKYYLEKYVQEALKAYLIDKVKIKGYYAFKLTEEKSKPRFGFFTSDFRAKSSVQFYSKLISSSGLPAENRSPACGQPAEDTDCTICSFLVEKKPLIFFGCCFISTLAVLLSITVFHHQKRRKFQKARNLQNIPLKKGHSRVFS

FGF19 (fibroblast growth factor 19, reference or wild type sequence), sequence (O95750 23-216 limits assumed): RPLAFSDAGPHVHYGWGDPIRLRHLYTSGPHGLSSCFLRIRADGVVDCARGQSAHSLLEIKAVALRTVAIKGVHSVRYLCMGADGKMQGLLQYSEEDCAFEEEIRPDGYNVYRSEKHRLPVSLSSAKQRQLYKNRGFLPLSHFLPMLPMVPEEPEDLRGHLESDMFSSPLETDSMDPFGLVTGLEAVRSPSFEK

For the substance “FGF19 (fibroblast growth factor 19, reference or wild type sequence) (from UniProt O95750 23-216) (ligand)”, the EC50 (pM), ELK luciferase reporter assay in L6 cells is 52.5 pM and the Emax (fold potentiation), ELK luciferase reporter assay in L6 cells (fold potentiation) amounted to 1.82.

(Values after patent US20150291677A1.)
